Data reported in paper PMC5855951.

Target: METTL3;METTL14 (human?;human?, UniProt Q86U44;Q9HCE5 1-580;1-456, |)
Experiment: filter binding

Sequence of METTL3;METTL14 (Q86U44 whole entry, chain 1 of 2): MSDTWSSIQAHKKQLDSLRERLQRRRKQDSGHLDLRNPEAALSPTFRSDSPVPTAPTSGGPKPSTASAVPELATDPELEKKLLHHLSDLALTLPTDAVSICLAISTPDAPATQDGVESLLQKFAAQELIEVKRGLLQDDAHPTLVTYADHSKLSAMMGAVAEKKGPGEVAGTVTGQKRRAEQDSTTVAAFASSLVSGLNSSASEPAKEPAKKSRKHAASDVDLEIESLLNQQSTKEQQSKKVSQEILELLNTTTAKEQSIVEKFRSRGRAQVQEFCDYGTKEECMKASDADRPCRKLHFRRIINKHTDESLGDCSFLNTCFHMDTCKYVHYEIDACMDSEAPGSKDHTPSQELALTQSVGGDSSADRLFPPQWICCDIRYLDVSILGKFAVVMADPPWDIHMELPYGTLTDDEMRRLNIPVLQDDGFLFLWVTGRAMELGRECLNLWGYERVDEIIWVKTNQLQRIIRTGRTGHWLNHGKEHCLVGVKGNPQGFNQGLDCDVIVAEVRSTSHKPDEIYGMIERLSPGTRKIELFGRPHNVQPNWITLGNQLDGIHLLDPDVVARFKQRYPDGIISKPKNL
Sequence of METTL3;METTL14 (Q9HCE5 whole entry, chain 2 of 2): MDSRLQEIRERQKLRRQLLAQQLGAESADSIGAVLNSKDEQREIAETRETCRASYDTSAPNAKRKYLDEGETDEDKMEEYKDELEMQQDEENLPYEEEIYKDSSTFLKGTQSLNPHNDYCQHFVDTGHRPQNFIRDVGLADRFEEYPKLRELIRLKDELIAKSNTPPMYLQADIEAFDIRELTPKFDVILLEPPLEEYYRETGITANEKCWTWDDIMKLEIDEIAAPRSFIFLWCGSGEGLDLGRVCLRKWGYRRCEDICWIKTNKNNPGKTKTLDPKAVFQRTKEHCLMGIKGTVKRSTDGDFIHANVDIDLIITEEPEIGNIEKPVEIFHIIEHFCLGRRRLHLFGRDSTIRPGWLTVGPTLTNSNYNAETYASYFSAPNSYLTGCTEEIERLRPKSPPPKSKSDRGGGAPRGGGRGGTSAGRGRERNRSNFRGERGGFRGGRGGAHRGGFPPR

GGACUGGACUGGACUGGACU (ssRNA) [4x GGACU RNA probe]: binds.
